The values below come from paper PMC4739419, “Mutations in the nucleotide binding and hydrolysis domains of Helicobacter pylori MutS2 lead to altered biochemical activities and inactivation of its in vivo function” (BMC Microbiology, 2016).

Data set [1] in a line: ATPase assay of HpMutS2 and mutants (TLC, ATP [γ-32P] tracer). The data set is classed as biochemical. To be noted: for kcat value, fold reduced compared to the wild-type protein / V max / k cat: ATP hydrolysis; for V max / k cat: Mg2+ 5 mM, 37 °C, Michaelis-Menten analysis; for Km value, fold higher compared to the wild-type protein: for ATP; for effect of DNA on ATPase activity: 1 μM. An excerpt:
Fig. 1 a Schematic representation of HpMutS2 variants used in this study. Walker-A and Walker-B motifs of HpMutS2 were identified by multiple sequence alignment of MutS2 proteins from different bacteria using Clustal Omega (http://www.ebi.ac.uk/Tools/msa/clustalo/). The mutations in the walker-A and Walker-B motifs were introduced using site directed mutagenesis. The mutated amino acids are highlighted in red. All the proteins were C-terminally His6-tagged. The LDLK motif and Smr domain are conserved nuclease sites of HpMutS2. b Effect of DNA substrates on ATPase activity of HpMutS2. HpMutS2 (45 nM) was incubated with increasing concentrations of ATP [0, 10, 20, 40, 60, 80, 100, 200, 400, 600, 800, and 1000 (μM)]. DNA substrates (1 μM) were added separately to the reaction mixtures. After incubation at 37 °C for 30 min the reactions were stopped by EDTA (50 mM) and the products were separated by TLC. ATP [γ-^32P] was used as tracer to monitor the product formation. Reaction velocities were calculated by quantifying the proportion of products formed to un-reacted substrate divided by incubation time TEXT PRINTED IN THE PICTURE: (A) HpMutS2 (1-762): Mol. wt. (kDa): 87.8 | (A) HpMutS2-G338R (1-762): Mol. wt. (kDa): 87.9 | (A) HpMutS2-E413A (1-762): Mol. wt. (kDa): 87.7 | (A) HpMutS2ΔSmr (1-683): Mol. wt. (kDa): 79.3 | (A) HpMutS2ΔSmr-D30A (1-683): Mol. wt. (kDa): 79.2 | (A) HpSmr (684-762): Mol. wt. (kDa): 9.6
To delineate the characteristics of the ATPase activity of HpMutS2, we initially determined the metal ion requirement for ATP hydrolysis by HpMutS2. Purified HpMutS2 was incubated with excess of cold ATP (100 μM) with or without metal ions (5 mM each), and ATP hydrolysis monitored by thin layer chromatography using radiolabeled ATP [γ-^32P] as tracer. […] Based on the above observations, all subsequent ATPase assays were performed in presence of Mg^2+ (5 mM) at 37 °C using the protein concentrations in the linear range of enzymatic activity for 30 min or below.
ATPase activity of HpMutS2 and mutants was carried out in 10 μl of reaction volume containing 1X buffer A (50 mM Tris pH 8.0, 50 mM NaCl, and 1 mM DTT) containing MgCl2 (5 mM), and ATP [γ-^32P] was used as a tracer. A 1:1000 dilution of 25 μC ATP [γ-^32P] (3500 Ci/mmol) was used with indicated amount of the cold ATP in all the assays. All reactions were carried out at 37 °C for indicated time and terminated by the addition of EDTA (50 mM). 1 μl aliquot of each reaction mixture was spotted on a polyethylene cellulose TLC sheets. The reaction components [ATP and inorganic phosphate (Pi)] were separated by thin layer chromatography (TLC) using 0.4 M […] and 0.1 mM EDTA as mobile phase. The dried TLC sheets were visualized by phosphorimaging and quantified using Image Gauge (Version 3.0). The kinetic parameters were determined using the Michaelis–Menten equation by non-linear regression of plot of rate of product formation versus substrate concentration using GraphPad Prism 5 software. Reaction velocities were calculated by quantifying the proportion of products formed to un-reacted substrate divided by incubation time. To determine the effect of DNA on ATPase activity 1 μM of DNA substrates were added separately to the reaction mixture.

The next data set addresses Holliday junction. The data set is described as follows: Electrophoretic mobility shift assay (EMSA). The data set is classed as binding. To be noted: for Kd: read-out: DNA binding affinity (dissociation constant); for fold reduced affinity compared to wild-type: no nucleotide. As to the method: (§1) Fig. 5 Effect of nucleotide cofactors on DNA binding activity of HpMutS2 and mutants. Electrophoretic mobility shift assays were performed by incubating radiolabeled DNA substrates (0.16 nM) with increasing concentrations of proteins as described in Methods section. Nucleotides (1 mM) were added separately to the reaction mixtures. After incubation of 30 min on ice, the reaction mixtures were electrophoresed on native PAGE (8 %) at 4 °C. (a, panel 1–6) Interaction of HpMutS2 and mutants with single-stranded DNA. b-g Plots of percentage of bound DNA substrate (ssDNA and Holliday junction) versus protein concentration. The percentage binding was calculated by measuring the depletion in substrate DNA considering DNA without protein as 100 %. Error bars represent standard deviation from two or more different experiments. Schematic representation of DNA substrates used are shown at the left side of figures
(§2) Radiolabeled DNA substrates (0.16 nM) were incubated with increasing concentrations of HpMutS2 and mutants in buffer A with 1X BSA (0.1 μg/μl). ATP, ADP, and ATPγS (1 mM each) were added separately to the reaction mixture. The NaCl concentration was maintained to 110 mM by adding storage buffer C to the reaction mixture. After incubation of 30 min on ice, the reaction mixtures were electrophoresed on native PAGE (8 %) at 4 °C. The gels were transferred on to Whatman 3 mm paper and dried under vacuum at 80 °C for 45 min. The gels were visualized by phosphorimaging and quantified using Image Gauge (Version 3.0). The dissociation constants were determined by non-linear regression analysis and calculated by plotting the percentage of bound DNA versus concentration of protein using “One site - Specific binding with Hill slope” equation of the GraphPad Prism 5 software.
For orientation: In EMSA bound probe runs differently from free probe, usually more slowly.

In a further data set the test system is Single-stranded DNA. The data set is described as follows: Electrophoretic mobility shift assay (EMSA). The data set is classed as binding. As to conditions: for fold reduced affinity compared to wild-type: no nucleotide; for Kd: read-out: DNA binding affinity (dissociation constant). The method, then:
as §1, §2

The mark [2] stands for this setting: comparison with literature value.

Where two headings read alike, the source gives them in different places. Bounds are passed on as bounds.

B1: HpMutS2-E413A (enzyme)
chain: MSDAPKRSLNPTLMMNNNNTPPKPLEESLDLKEFIALFKTFFAKERDTIALENDLKQTFTYLNEVDAIGLPTPKSVKESDLIIIKLTKLGTLHLDEIFEIVKRLHYIVVLQNAFKTFTHLKFHERLNAIVLPPFFNDLIALFDDEGKIKQGANATLDALNESLNRLKKESVKIIHHYARSKELAPYLVDTQSHLKHGYECLLLKSGFSGAIKGVVLERSANGYFYLLPESAQKIAQKIAQIGNEIDCCIVEMCQTLSHSLQKHLLFLKFLFKEFDFLDSLQARLNFAKAYNLEFVMPSFTQKKMILENFSHPILKEPKPLNLKFEKSMLAVTGVNAGGKTMLLKSLLSAAFLSKHLIPMKINAHHSIIPYFKEIHAIINDPQNSANNISTFAGRMKQFSALLSKENMLLGVDAIELGTDADEASSLYKTLLEKLLKQNNQIIITTHHKRLSVLMAENKEVELLAALYDEEKERPTYTFLKGVIGKSYAFETALRYGVPHFLIEKAKTFYGEDKEKLNVLIENSSALERELKQKNEHLENALKEQEYLKNAWLLEMEKQKEIFHNKKLELEKSYQQALNILKSEVASKDTSSMHKEIHKASEILSKHKTNQEIPQIITNFQANEKARYKNESVLIVQILDKGYYWIETELGMRLKAHGSLLKKIQKPPKNKFKPPKTTIPKPKEASLRLDLRGQRSEEALDLLDAFLNDALLGGFEEVLICHGKGSGILEKFVKEFLKNHPKVVSFSDAPINLGGSGVKIVKL
notes: also called Walker-B mutant
With B1, in data set [1], the “kcat value, fold reduced compared to the wild-type protein” value is recorded as ~ 10 fold; the V max was found to be 0.19 ± 0.03 µM/min; the k cat was 0.0703 ± 0.011 s⁻¹; the “Km value, fold higher compared to the wild-type protein” value is recorded as “comparable”. On Holliday junction (+ ADP 1 mM), the Kd turned out to be 46.4 ± 5.6 nM. Further, at Holliday junction (+ ATP 1 mM), the Kd was found to be 31.7 ± 3.34 nM. Further, on Holliday junction (No nucleotide), the Kd was determined as 30.8 ± 1.97 nM. Also, the “fold reduced affinity compared to wild-type” value (“fold reduced affinity” below) in the data set on Holliday junction is reported as ~ 2 fold. The “fold reduced affinity” value in the data set with Single-stranded DNA is reported as > 4 fold.

B2: HpMutS2-G338R (protein)
chain: MSDAPKRSLNPTLMMNNNNTPPKPLEESLDLKEFIALFKTFFAKERDTIALENDLKQTFTYLNEVDAIGLPTPKSVKESDLIIIKLTKLGTLHLDEIFEIVKRLHYIVVLQNAFKTFTHLKFHERLNAIVLPPFFNDLIALFDDEGKIKQGANATLDALNESLNRLKKESVKIIHHYARSKELAPYLVDTQSHLKHGYECLLLKSGFSGAIKGVVLERSANGYFYLLPESAQKIAQKIAQIGNEIDCCIVEMCQTLSHSLQKHLLFLKFLFKEFDFLDSLQARLNFAKAYNLEFVMPSFTQKKMILENFSHPILKEPKPLNLKFEKSMLAVTGVNAGRKTMLLKSLLSAAFLSKHLIPMKINAHHSIIPYFKEIHAIINDPQNSANNISTFAGRMKQFSALLSKENMLLGVDEIELGTDADEASSLYKTLLEKLLKQNNQIIITTHHKRLSVLMAENKEVELLAALYDEEKERPTYTFLKGVIGKSYAFETALRYGVPHFLIEKAKTFYGEDKEKLNVLIENSSALERELKQKNEHLENALKEQEYLKNAWLLEMEKQKEIFHNKKLELEKSYQQALNILKSEVASKDTSSMHKEIHKASEILSKHKTNQEIPQIITNFQANEKARYKNESVLIVQILDKGYYWIETELGMRLKAHGSLLKKIQKPPKNKFKPPKTTIPKPKEASLRLDLRGQRSEEALDLLDAFLNDALLGGFEEVLICHGKGSGILEKFVKEFLKNHPKVVSFSDAPINLGGSGVKIVKL
In the case of B2, in data set [1], the “kcat value, fold reduced compared to the wild-type protein” value is recorded as ~ 3 fold. In data set [1], this molecule returned a V max of 0.64 ± 0.15 µM/min. This molecule also yielded a k cat in data set [1] of 0.237 ± 0.0555 s⁻¹. In data set [1], the “Km value, fold higher compared to the wild-type protein” value was ~ 2.3 fold. Besides, the Kd on Holliday junction (+ ADP 1 mM) came out at 34 ± 5.31 nM; on Holliday junction (+ ATP 1 mM), 32 ± 4.34 nM; at Holliday junction (No nucleotide), 21.4 ± 0.93 nM; at Single-stranded DNA (+ ADP 1 mM), 23.9 ± 2.91 nM; at Single-stranded DNA (+ ATP 1 mM), 30.7 ± 3.43 nM; on Single-stranded DNA (No nucleotide) it was 32.4 ± 3.32 nM. Also, the “fold reduced affinity” value with Holliday junction and in the data set on Single-stranded DNA was ~ 1.5 fold throughout.

B3: HpMutS2: Helicobacter pylori MutS2 (1-762), C-terminally His6-tagged wild-type protein, nuclease and ABC ATPase (protein)
chain: MSDAPKRSLNPTLMMNNNNTPPKPLEESLDLKEFIALFKTFFAKERDTIALENDLKQTFTYLNEVDAIGLPTPKSVKESDLIIIKLTKLGTLHLDEIFEIVKRLHYIVVLQNAFKTFTHLKFHERLNAIVLPPFFNDLIALFDDEGKIKQGANATLDALNESLNRLKKESVKIIHHYARSKELAPYLVDTQSHLKHGYECLLLKSGFSGAIKGVVLERSANGYFYLLPESAQKIAQKIAQIGNEIDCCIVEMCQTLSHSLQKHLLFLKFLFKEFDFLDSLQARLNFAKAYNLEFVMPSFTQKKMILENFSHPILKEPKPLNLKFEKSMLAVTGVNAGGKTMLLKSLLSAAFLSKHLIPMKINAHHSIIPYFKEIHAIINDPQNSANNISTFAGRMKQFSALLSKENMLLGVDEIELGTDADEASSLYKTLLEKLLKQNNQIIITTHHKRLSVLMAENKEVELLAALYDEEKERPTYTFLKGVIGKSYAFETALRYGVPHFLIEKAKTFYGEDKEKLNVLIENSSALERELKQKNEHLENALKEQEYLKNAWLLEMEKQKEIFHNKKLELEKSYQQALNILKSEVASKDTSSMHKEIHKASEILSKHKTNQEIPQIITNFQANEKARYKNESVLIVQILDKGYYWIETELGMRLKAHGSLLKKIQKPPKNKFKPPKTTIPKPKEASLRLDLRGQRSEEALDLLDAFLNDALLGGFEEVLICHGKGSGILEKFVKEFLKNHPKVVSFSDAPINLGGSGVKIVKL
modifications: left off: His6, C-terminal, state not stated
notes: Helicobacter pylori MutS2 (1-762), C-terminally His6-tagged wild-type protein, nuclease and ABC ATPase
In the case of B3, the “effect of DNA on ATPase activity” value in data set [1] (3′- or 5′-overhangs) is on record as “negligible increases”; in data set [1] (linear DNA substrates ssDNA, dsDNA), “no effect”. In addition, the V max in data set [1] worked out at 1.88 ± 0.13 µM/min. Moreover, in data set [1], the k cat turned out to be 0.6962 ± 0.048 s⁻¹. For the same molecule, the “Km value, fold higher compared to T. thermophilus MutS1” value in data set [1] (setting [2]) is listed as ~ 8 fold. Also, the “Km value, fold higher compared to Thermus thermophilus MutS2 (TtMutS2)” value in data set [1] (setting [2]) is ~ 9 fold. Also, the “kcat value, fold higher compared to T. thermophilus MutS1” value in data set [1] (setting [2]) was ~ 4.5 fold. Moreover, in data set [1] (setting [2]), the “kcat value, fold higher compared to Thermus thermophilus MutS2 (TtMutS2)” value is reported as ~ 20 fold. Also, the Kd came to 22.6 ± 1.39 nM on Holliday junction (+ ADP 1 mM); 20.8 ± 2.95 nM at Holliday junction (+ ATP 1 mM); 22.5 ± 1.23 nM on Holliday junction (+ ATPγS 1 mM); 14.4 ± 0.82 nM at Holliday junction (No nucleotide); 17.3 ± 2.89 nM at Single-stranded DNA (+ ADP 1 mM); 11.4 ± 0.19 nM at Single-stranded DNA (+ ATPγS 1 mM). On Single-stranded DNA (No nucleotide), the Kd worked out at 21.5 ± 2.28 nM. In addition, in the data set with Single-stranded DNA (ATP 1 mM, at lower concentrations of protein), the “fold reduced ssDNA binding in presence of ATP” value is recorded as ~ 5 fold.
